Results from the supplement of paper PMC7877785.
± gives the uncertainty stated by the source.

Assay: self-splicing fitness, log relative to wild type (ln ratio); higher = more splicing; Tetrahymena group I intron in knt gene, E. coli kanamycin selection, DiMSum; sequences stand for … in CUCUCU…GGAGGGAAAAGUUAUCAGGCAUGCACCUGGUAGCUAGUCUUUAAACCAAUAGAUUGCAUCGGUUUAAAAGGCAAGACCGUCAAAUUGCGGGAAAGGGGUCAACAGCCGUUCAGUACCAAGUCUCAGGGGAAACUUUGAGAUGGCCUUGCAAAGGGUAUGGUAAUAAGCUGACGGACAUGGUCCUAACCACGCAGCCAAGUCCUAAGUCAACAGAUCUUCUGUUGAUAUGGAUGCAGUUCACAGACUAAAUGUCGGUCGGGGAAGAUGUAUUCUUCUCAUAAGAUAUAGUCGGACCUCUCCUUAAUGGGAGCUAGCGGAUGAAGUGAUGCAACACUGGAGCCGCUGGGAACUAAUUUGUAUGCGAAAGUAUAUUGAUUAGUUUUGGAGUACUCGUGGUCG
Method in brief: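 A randomised library covering all eight P1ex-region intron nucleotides was built with the intron in the knt kanamycin-resistance gene on pET-22b(+) and held in E. coli BL21(DE3). Cells were grown overnight at 37°C or 30°C on LB agar, with or without 25 μg/mL kanamycin, plus 100 μg/mL carbenicillin, 50 μM IPTG and 0.2% rhamnose, and pooled colonies were amplicon-sequenced on an Illumina HiSeq 2500. DiMSum fitness is the error-weighted combination of wild-type-normalised replicate fold changes, kanamycin versus none.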

GACUAGCAAUAUUACGAAGC
self-splicing fitness (ln) (30 °C): -2.18 ± 0.18 | self-splicing fitness (ln) (37 °C): -1.55 ± 0.18

AGCAAGCAAUAUUACGAACU
self-splicing fitness (ln) (30 °C): -0.731 ± 0.12 | self-splicing fitness (ln) (37 °C): -0.593 ± 0.14

GCUAAGCAAUAUUACGCCCG
self-splicing fitness (ln) (30 °C): -0.889 ± 0.11 | self-splicing fitness (ln) (37 °C): -0.34 ± 0.17

ACCAAGCAAUAUUACGGCAC
self-splicing fitness (ln) (30 °C): -0.797 ± 0.091 | self-splicing fitness (ln) (37 °C): -0.913 ± 0.11

UUGCAGCAAUAUUACGUGCC
self-splicing fitness (ln) (30 °C): -2.11 ± 0.14 | self-splicing fitness (ln) (37 °C): -1.18 ± 0.15

GCUCAGCAAUAUUACGCAGG
self-splicing fitness (ln) (30 °C): -1.52 ± 0.084 | self-splicing fitness (ln) (37 °C): -1.29 ± 0.098

CUGUAGCAAUAUUACGGCCC
self-splicing fitness (ln) (37 °C): -0.731 ± 0.38

AUGUAGCAAUAUUACGCGGC
self-splicing fitness (ln) (30 °C): -4.15 ± 0.4 | self-splicing fitness (ln) (37 °C): -3.45 ± 0.27

GGAGAGCAAUAUUACGCGAA
self-splicing fitness (ln) (30 °C): -2.02 ± 0.24 | self-splicing fitness (ln) (37 °C): -2.72 ± 0.36

CGAUAGCAAUAUUACGGGGU
self-splicing fitness (ln) (30 °C): -3.87 ± 0.19 | self-splicing fitness (ln) (37 °C): -3.11 ± 0.32

CACUAGCAAUAUUACGCCGA
self-splicing fitness (ln) (30 °C): -2.8 ± 0.21 | self-splicing fitness (ln) (37 °C): -1.49 ± 0.17

AACUAGCAAUAUUACGUAAG
self-splicing fitness (ln) (30 °C): -1.22 ± 0.084 | self-splicing fitness (ln) (37 °C): -1.65 ± 0.11

CGUAAGCAAUAUUACGCCUA
self-splicing fitness (ln) (37 °C): -2.18 ± 0.27

UCCAAGCAAUAUUACGCCGG
self-splicing fitness (ln) (30 °C): -1.53 ± 0.11 | self-splicing fitness (ln) (37 °C): -0.578 ± 0.14

UAGGAGCAAUAUUACGCAAU
self-splicing fitness (ln) (37 °C): -1.73 ± 0.38

CCAUAGCAAUAUUACGGAGU
self-splicing fitness (ln) (30 °C): -4 ± 0.29 | self-splicing fitness (ln) (37 °C): -2.42 ± 0.17

AAAAAGCAAUAUUACGACUC
self-splicing fitness (ln) (30 °C): 0.0755 ± 0.088 | self-splicing fitness (ln) (37 °C): 0.373 ± 0.11

CCACAGCAAUAUUACGUCUA
self-splicing fitness (ln) (30 °C): -3.53 ± 0.24 | self-splicing fitness (ln) (37 °C): -2.43 ± 0.17

GCCAAGCAAUAUUACGGGCC
self-splicing fitness (ln) (37 °C): -2.13 ± 0.32

AUUUAGCAAUAUUACGCUUA
self-splicing fitness (ln) (30 °C): -1.99 ± 0.17 | self-splicing fitness (ln) (37 °C): -0.321 ± 0.19

AGGUAGCAAUAUUACGCUCA
self-splicing fitness (ln) (30 °C): -0.609 ± 0.017 | self-splicing fitness (ln) (37 °C): -0.196 ± 0.035

UUGAAGCAAUAUUACGGACA
self-splicing fitness (ln) (30 °C): 0.534 ± 0.1 | self-splicing fitness (ln) (37 °C): 0.655 ± 0.14

UUCUAGCAAUAUUACGUCGC
self-splicing fitness (ln) (30 °C): -3.18 ± 0.44

GCCGAGCAAUAUUACGUGAG
self-splicing fitness (ln) (30 °C): -1.23 ± 0.09 | self-splicing fitness (ln) (37 °C): -0.333 ± 0.12

UUCAAGCAAUAUUACGUUUC
self-splicing fitness (ln) (30 °C): -3.02 ± 0.13 | self-splicing fitness (ln) (37 °C): -2.25 ± 0.18

CUCGAGCAAUAUUACGGAUA
self-splicing fitness (ln) (30 °C): -2.79 ± 0.28 | self-splicing fitness (ln) (37 °C): -3.68 ± 0.46

UGGGAGCAAUAUUACGCUGC
self-splicing fitness (ln) (37 °C): -1.15 ± 0.28

AAUAAGCAAUAUUACGGCCC
self-splicing fitness (ln) (30 °C): -0.731 ± 0.17 | self-splicing fitness (ln) (37 °C): 0.533 ± 0.27

GUUGAGCAAUAUUACGAGUG
self-splicing fitness (ln) (30 °C): -2.98 ± 0.19 | self-splicing fitness (ln) (37 °C): -3.28 ± 0.28

GUAAAGCAAUAUUACGCCUG
self-splicing fitness (ln) (30 °C): -0.223 ± 0.15 | self-splicing fitness (ln) (37 °C): 0.555 ± 0.17

AGACAGCAAUAUUACGCUGA
self-splicing fitness (ln) (30 °C): -2.39 ± 0.16 | self-splicing fitness (ln) (37 °C): -1.75 ± 0.19

AGACAGCAAUAUUACGAUUU
self-splicing fitness (ln) (30 °C): 0.0877 ± 0.068 | self-splicing fitness (ln) (37 °C): 0.119 ± 0.086

CUGCAGCAAUAUUACGAGCC
self-splicing fitness (ln) (30 °C): -2.9 ± 0.31

GCUCAGCAAUAUUACGAAUU
self-splicing fitness (ln) (30 °C): -1.04 ± 0.064 | self-splicing fitness (ln) (37 °C): 0.155 ± 0.087

UUGAAGCAAUAUUACGGUUA
self-splicing fitness (ln) (30 °C): -0.344 ± 0.066 | self-splicing fitness (ln) (37 °C): 0.471 ± 0.086

CGUUAGCAAUAUUACGUUUC
self-splicing fitness (ln) (30 °C): -3.28 ± 0.2 | self-splicing fitness (ln) (37 °C): -2.19 ± 0.21

AGAGAGCAAUAUUACGUGAA
self-splicing fitness (ln) (30 °C): -2.82 ± 0.3 | self-splicing fitness (ln) (37 °C): -2.16 ± 0.29

UUAUAGCAAUAUUACGGGAA
self-splicing fitness (ln) (30 °C): -1.59 ± 0.29 | self-splicing fitness (ln) (37 °C): -1.26 ± 0.28

UUCUAGCAAUAUUACGGGUU
self-splicing fitness (ln) (30 °C): -2.34 ± 0.17 | self-splicing fitness (ln) (37 °C): -1.93 ± 0.24

UGUAAGCAAUAUUACGUCCU
self-splicing fitness (ln) (30 °C): -0.564 ± 0.074 | self-splicing fitness (ln) (37 °C): 0.215 ± 0.079
